Assay results taken from article PMC3940207 (Molecular cell, 2014).
Values belong to the molecule of their own block, whether it stands above or below them.

Legend:
[1] = target: single chain H2B_(36-130) and H2A.Z_(22-118) chimera; assay: ITC
[2] = target: single chain H2B_(36-130) and H2A.Z_(22-118) chimera; assay: AUC
[3] = target: T1, Swr1_(504-650) (S. cerevisiae, UniProt Q05471 505-651); assay: ITC
T1 sequence (looked up): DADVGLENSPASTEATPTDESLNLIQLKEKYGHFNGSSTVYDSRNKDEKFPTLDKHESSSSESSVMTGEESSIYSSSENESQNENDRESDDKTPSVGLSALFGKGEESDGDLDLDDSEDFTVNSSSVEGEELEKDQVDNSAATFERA

- Kd [1]: 7 nM
Molecule: Swr1_(504-650) (from UniProt Q05471 505-651) (domain or fragment)

- stoichiometry N [2]: 1
Molecule: Swr1_(589-650) (from UniProt Q05471 590-651) (domain or fragment)

- Kd [3]: ~151 nM
B1: scH2B-H2A (other)
chain: MRKETYSSYIYKVLKQTHPDTGISQKSMSILNSFVNDIFERIATEASKLAAYNKKSTISAREIQTAVRLILPGELAKHAVSEGTRAVTKYSSSTQAQSRSAKAGLTFPVGRVHRLLRRGNYAQRIGSGAPVYLTAVLEYLAAEILELAGNAARDNKKTRIIPRHLQLAIRNDDELNKLLGNVTIAQGGVLPNI
